Test results reported in article PMC6153374.

Molecular target: E. coli derived recombinant CRM197 (cross reacting material 197) (Corynebacterium diphtheriae C7 (β197))
Experiment: crystal structure; sitting drop, room temperature; 22.9 mg/ml protein in 0.15 M NaCl, 0.01 M Tris/HCl pH 8.3 mixed 1:1 with 0.2 M lithium sulfate, 0.1 M Bis-Tris pH 5.5, 25% (w/v) PEG 3350; data at 100 K; four molecules in the asymmetric unit (two domain-swapped dimers)

## E. coli derived recombinant CRM197 (cross reacting material 197) (natural protein)
  stoichiometry N: 2
